Measured values: the supplement of paper PMC9233669
This sample holds only a part of the variants without activity.

Key:
biotinyl-Phe-oxazolone = assay: self-aminoacylation, catalytic enhancement (BFO) (fold over background); higher = more active; k-Seq, kA / k0A0; sequences stand for … in GGGAAUGGAUCCACAUCUACGAAUUC…UUCACUGCAGACUUGACGAAGCUG
Summary of the method: (§1)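 Mutagenized RNA pools (0.43 μM; 21-nt variable region) were treated with 2–1250 μM of each biotinyl-aminoacyl-oxazolone. Conditions were 50 μL HEPES/NaCl/KCl/MgCl2/CaCl2 buffer, 5% acetonitrile, pH 6.9–7.0, room temperature, 90 minutes. Catalytic enhancement, the median kA relative to the uncatalyzed rate, was derived from streptavidin capture, qPCR and Illumina sequencing.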

biotinyl-Ile-oxazolone = assay: self-aminoacylation, catalytic enhancement (BIO) (fold over background); higher = more active; k-Seq, kA / k0A0; sequences stand for … in GGGAAUGGAUCCACAUCUACGAAUUC…UUCACUGCAGACUUGACGAAGCUG
Summary of the method: as §1

biotinyl-Met-oxazolone = assay: self-aminoacylation, catalytic enhancement (BMO) (fold over background); higher = more active; k-Seq, kA / k0A0; sequences stand for … in GGGAAUGGAUCCACAUCUACGAAUUC…UUCACUGCAGACUUGACGAAGCUG
Summary of the method: as §1

biotinyl-Val-oxazolone = assay: self-aminoacylation, catalytic enhancement (BVO) (fold over background); higher = more active; k-Seq, kA / k0A0; sequences stand for … in GGGAAUGGAUCCACAUCUACGAAUUC…UUCACUGCAGACUUGACGAAGCUG
Summary of the method: as §1

biotinyl-Leu-oxazolone = assay: self-aminoacylation, catalytic enhancement (BLO) (fold over background); higher = more active; k-Seq, kA / k0A0; sequences stand for … in GGGAAUGGAUCCACAUCUACGAAUUC…UUCACUGCAGACUUGACGAAGCUG
Summary of the method: as §1

biotinyl-Trp-oxazolone = assay: self-aminoacylation, catalytic enhancement (BWO) (fold over background); higher = more active; k-Seq, kA / k0A0; sequences stand for … in GGGAAUGGAUCCACAUCUACGAAUUC…UUCACUGCAGACUUGACGAAGCUG
Summary of the method: as §1

Row | Sequence | self-aminoacylation (biotinyl-Phe-oxazolone) | self-aminoacylation (biotinyl-Ile-oxazolone) | self-aminoacylation (biotinyl-Met-oxazolone) | self-aminoacylation (biotinyl-Val-oxazolone) | self-aminoacylation (biotinyl-Leu-oxazolone) | self-aminoacylation (biotinyl-Trp-oxazolone)
1 | AUUACCCUGGUCAUUGUGUGA [Fam2.1 aminoacylation ribozyme variant] | 8.81 | 1.46 | 2.59 | 1.49 | 2.23 | 3.23
2 | CUCCUUCAAACAAUCGGUCUC [Fam1A.1 aminoacylation ribozyme variant] | 40.8 | 1.11 | 1.19 | 0.933 | 1.75 | 26.2
3 | AUUCACCUAAGUUAUCGGGUG [Fam2.2 aminoacylation ribozyme variant] | 51 | 3.83 | 6.15 | 3.96 | 8.59 | 5.61
4 | CCACACUGCAAGCAUUCGGUC [Fam1B.1 aminoacylation ribozyme variant] | 8.26 | 2.37 | 2.04 | 2.96 | 2.58 | 3.51
5 | AUUACGCUGGUCACCGAGUGA [Fam2.1 aminoacylation ribozyme variant] | 47.5 | 3.71 | 6.73 | 4.31 | 7.46 | 7.92
6 | CUACUUCAAACUAUCCGUCUG [Fam1A.1 aminoacylation ribozyme variant] | 0.844 | 0.955 | 0.889 | 1.08 | 0.936 | 0.852
7 | CAUUUUGCUAAUAGUCGCAAG [Fam3.1 aminoacylation ribozyme variant] | 0.981 | 1.3 | 1.01 | 1.04 | 1.07 | 0.635
8 | AUUCCCGUAGGUCAUCGGGUG [Fam2.2 aminoacylation ribozyme variant] | 259 | 17 | 25.3 | 20.2 | 32.4 | 25.3
9 | AUCCACCUAGGUCGUCGGGUG [Fam2.2 aminoacylation ribozyme variant] | 9.53 | 2.36 | 2.62 | 2.56 | 3.5 | 2.22
10 | CCCCACUUCAAGCAAUCAGUC [Fam1B.1 aminoacylation ribozyme variant] | 19.8 | 0.981 | 0.987 | 1.14 | 1.13 | 6.51
11 | AUUACCCUUGUCAUCGAGUGA [Fam2.1 aminoacylation ribozyme variant] | 21.8 | 3.19 | 5.94 | 3.54 | 5.88 | 7.65
12 | CCACACUUCAAGCUAUCGUUC [Fam1B.1 aminoacylation ribozyme variant] | 0.96 | 0.677 | 0.542 | 0.908 | 0.574 | 0.521
13 | ACGUUUGCUAAUAGACGCAAG [Fam3.1 aminoacylation ribozyme variant] | 0.853 | 1.3 | 0.935 | 1.12 | 0.849 | 1.11
14 | AAGUUUGUUAAUAGUCGCACG [Fam3.1 aminoacylation ribozyme variant] | 1.4 | 1.04 | 1.12 | 0.925 | 1.22 | 1.04
15 | CCACAUGUCAAGCAAUCGGUC [Fam1B.1 aminoacylation ribozyme variant] | 1.08 | 1.22 | 1.13 | 1.33 | 1.27 | 0.915
16 | AUUACCCUGGUCAUAGAGUAA [Fam2.1 aminoacylation ribozyme variant] | 0.983 | 1.44 | 1.17 | 1.29 | 1.37 | 0.757
17 | AUUCUCCUAGGUCAUCGGGAG [Fam2.2 aminoacylation ribozyme variant] | 5.17 | 1.49 | 1.81 | 1.33 | 1.77 | 1.71
18 | AAGUGUGCUAAUAGUCGCUAG [Fam3.1 aminoacylation ribozyme variant] | 0.823 | 1.23 | 0.976 | 0.925 | 0.893 | 0.788
19 | CUACUUCAAACAGUGGGUCUG [Fam1A.1 aminoacylation ribozyme variant] | 0.834 | 0.995 | 0.764 | 0.823 | 0.935 | 0.989
20 | AUUACCCUGGUCAUCUAGGGA [Fam2.1 aminoacylation ribozyme variant] | 1.72 | 1.36 | 1.17 | 1.32 | 1.47 | 0.956
21 | CUACAUCAAACAAUCGGUCGG [Fam1A.1 aminoacylation ribozyme variant] | 1.36 | 0.773 | 0.954 | 0.981 | 1.16 | 0.994
22 | AAGUUUGCAAACAGUCGCAAG [Fam3.1 aminoacylation ribozyme variant] | 1.47 | 0.775 | 0.798 | 0.735 | 0.93 | 0.595
23 | AUUCACCUAGGCCAUGGGGUG [Fam2.2 aminoacylation ribozyme variant] | 42.5 | 4.58 | 8.03 | 3.87 | 10.2 | 6.1
24 | CUACGACAAACAAUCGGUCUG [Fam1A.1 aminoacylation ribozyme variant] | 1.69 | 0.748 | 0.713 | 0.654 | 0.655 | 0.855
25 | AUUACCCCGGCCAUCGAGUGA [Fam2.1 aminoacylation ribozyme variant] | 20.7 | 2.68 | 4.03 | 4.34 | 5.86 | 5.24
26 | CUACUUCAAACAAUCGAUCUC [Fam1A.1 aminoacylation ribozyme variant] | 2.76 | 0.502 | 0.322 | 0.799 | 0.5 | 0.881

Row | Sequence | self-aminoacylation (biotinyl-Phe-oxazolone) | self-aminoacylation (biotinyl-Ile-oxazolone) | self-aminoacylation (biotinyl-Met-oxazolone) | self-aminoacylation (biotinyl-Val-oxazolone) | self-aminoacylation (biotinyl-Leu-oxazolone) | self-aminoacylation (biotinyl-Trp-oxazolone)
27 | CUUCACCUAGGUUAUCGGGUG [Fam2.2 aminoacylation ribozyme variant] | 12.2 | 3.13 | 5.11 | 3.51 | 4.8 | 3.63
28 | UCACACUUCAAGCAAUCGGUC [Fam1B.1 aminoacylation ribozyme variant] | 49.8 | 0.996 | 0.998 | 1.2 | 1.43 | 22
29 | AUUCACCUGGUCAUCGAGUGA [Fam2.1 aminoacylation ribozyme variant] | 9.12 | 3.55 | 5.88 | 3.58 | 5.93 | 8.2
30 | AUUACCAUGGUCAUCGAGUGU [Fam2.1 aminoacylation ribozyme variant] | 4.69 | 2.55 | 4.53 | 2.78 | 4.6 | 6.03
31 | AUUGCCCUGCUCAUCGAGUGA [Fam2.1 aminoacylation ribozyme variant] | 5.55 | 1.22 | 1.86 | 1.61 | 1.91 | 1.04
32 | CCUCACCUAGGUCAUCGGGUG [Fam2.2 aminoacylation ribozyme variant] | 16.2 | 3.22 | 3.92 | 5.35 | 4.79 | 5.46
33 | CCCCACUUCAAGCAAUCGCUC [Fam1B.1 aminoacylation ribozyme variant] | 8.76 | 2.08 | 2.93 | 2.55 | 2.99 | 4.28
34 | CCACACUUAAAGCAAUCGGUU [Fam1B.1 aminoacylation ribozyme variant] | 0.794 | 1.08 | 0.896 | 1.15 | 0.849 | 0.916
35 | AUUCACCUCGGUGAUCGGGUG [Fam2.2 aminoacylation ribozyme variant] | 28.3 | 4.21 | 4.66 | 4.6 | 5.47 | 6
36 | AUUUACCUAGGUCAUCGGGUC [Fam2.2 aminoacylation ribozyme variant] | 0.638 | 1.12 | 1.26 | 1.27 | 1.33 | 1.02
37 | CCACACUUCAAGGAACCGGUC [Fam1B.1 aminoacylation ribozyme variant] | 1.2 | 1.04 | 1.04 | 0.945 | 0.984 | 0.809
38 | AAGUUUGCUAAUUUUCGCAAG [Fam3.1 aminoacylation ribozyme variant] | 0.884 | 1.07 | 1.06 | 1.1 | 1.23 | 1.85
39 | AAGUUUGCAAUUAGUCGCAAG [Fam3.1 aminoacylation ribozyme variant] | 0.786 | 1.08 | 0.922 | 0.898 | 0.909 | 0.6
40 | AUUCACCUAGGUCUUCGGGCG [Fam2.2 aminoacylation ribozyme variant] | 13.6 | 2.8 | 3.94 | 2.83 | 5.23 | 2.99
41 | AUUCUCCUAGUUCAUCGGGUG [Fam2.2 aminoacylation ribozyme variant] | 32.7 | 3.84 | 4.59 | 3.46 | 5.88 | 5.28
42 | CUACUUGAACCAAUCGGUCUG [Fam1A.1 aminoacylation ribozyme variant] | 0.74 | 0.821 | 0.841 | 0.879 | 0.941 | 0.582
43 | AAUUUUGCUCAUAGUCGCAAG [Fam3.1 aminoacylation ribozyme variant] | 3.17 | 1.85 | 1.82 | 1.57 | 1.98 | 1.69
44 | CCACACGUCAAGCAGUCGGUC [Fam1B.1 aminoacylation ribozyme variant] | 0.584 | 0.995 | 1.05 | 1.69 | 1.26 | 1.17
45 | AAGUUUGGUGAUAGUCGCAAG [Fam3.1 aminoacylation ribozyme variant] | 2.03 | 1.36 | 1.51 | 1.23 | 1.43 | 1.42
46 | AUUCACCCGGGUCAUCGGGUG [Fam2.2 aminoacylation ribozyme variant] | 42.6 | 4.1 | 5.16 | 4.44 | 6.18 | 6.14
47 | AUUCACCUAGGUCAUAGGGUU [Fam2.2 aminoacylation ribozyme variant] | 0.392 | 0.918 | 0.827 | 0.804 | 0.676 | 0.959
48 | AUUCACCUAGGUAAUCGUGUG [Fam2.2 aminoacylation ribozyme variant] | 3.38 | 0.879 | 0.915 | 0.838 | 1.14 | 0.758
49 | CUCCUUUAAACAAUCGGUCUG [Fam1A.1 aminoacylation ribozyme variant] | 1.73 | 0.972 | 1.12 | 0.974 | 0.712 | 1.36
50 | AUUACCCUGGUCAUCUAUUGA [Fam2.1 aminoacylation ribozyme variant] | 0.868 | 1.08 | 0.879 | 1.11 | 0.839 | 0.789
51 | AUUCACCUUAGUCAUCGGGUG [Fam2.2 aminoacylation ribozyme variant] | 38.8 | 3.73 | 6.02 | 3.83 | 7.94 | 5.66
